Assay results: the nanobody polyreactivity screen of Harvey et al. (2022)

Assay: yeast display, Sf9 membrane polyspecificity reagent, FACS + sequencing; frameworks hold sequencing errors
Summary of the method: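 Galactose induction of a Saccharomyces cerevisiae BJ5465 synthetic nanobody display library ran 36–48 hours. The cells were then stained for 1 hour at 4 °C with 10% biotinylated, detergent-solubilized Sf9 membrane reagent, pulled down on streptavidin microbeads and FACS-sorted into low and high (top ~1%) gates on expression and reagent-binding fluorescence. Labels for polyreactivity follow the gate of origin.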

QVQLVESGGGLVQAGGSLRLSCAASGFTFSYYAMGWYRQAPGKERELVAAISWSGGSTYSADSVKGRFTISRDNAKNTVYLQMNSLKPEDTAVYYCAAEVYFLATGTWYDYWGQGTQVTVSS
polyreactivity (PSR sort gate): high polyreactivity

QVQLVESGGGLVQAGGSLRLTCAASGRIFDTYAMVWYRQAPGKEMELVAAISRSGGRTYYADSVKGRFTISRDNANNTVYLQMNSLKPEDTAVYYCAARAYPYYWTGQKQSRFGYWGQGTQVTVSS
polyreactivity (PSR sort gate): high polyreactivity

QVQHVESGGGLVQAGGSLRLSCAASGRTFYSYAMGWYRQAPGKDRELVAAITSDGGTYYADSVKGRFTISRDNAKNTVYLQMNSLKPDDTAVYYCNTRDLYGYPQVTGYDYWGQGTQVTVSS
polyreactivity (PSR sort gate): low polyreactivity

QVQLEESGGGLVQAGGSLRLAVLPPDLPSTLNDMGWYRQAPGKERELVAAITRGGSTNYADSVKGRFTISRDNAKNTVYLQMNSLKPEDTAVYYCAAPYAGWRDGGDYWGQGTQVTVSS
polyreactivity (PSR sort gate): low polyreactivity

QVQLVESGGGLVQAGGSLRLSCAASGRIFNYYAMGWYRQAPGTERELVAAISTDGGSTYYADSVKGRFTISRDNAKNSVYLQMNSLKPEDTAVYYCAAYQYYDFSYSYDYWGQGTQVTVSS
polyreactivity (PSR sort gate): low polyreactivity

QVQLVESGGGLVQAGGSLRLSCAASGSTFFRYAMGWYRQAPGKERELVAAISKSGASTYYADSVKGRFTISRDNAKNTVYLQMNSLNPEDTAVYYCNADVKKSSAREWQYGYDYWGQGTQVTVSS
polyreactivity (PSR sort gate): low polyreactivity

QVQLVESGGGLVQAGGSLSLSCAASGNTFYGYAMGWYRQAPGKERELVASITLSGDSTYYADSVKGRFTISRDNAKNTVYLQMNSLKPEDTAVFDCAGVYTYPLGYYHYTYDYWGQGTQVTVSS
polyreactivity (PSR sort gate): low polyreactivity

QVQLVESGGGLVQAGGSLRLSCAASGSTFAYNVMGWYRQAPGKERELVAAITISGTSTYYADSVKGRFTISRDNAKNTVYLQMNSLKPEDTAVYYCAARRDRGRVKFYYWGQGTQVTVSS
polyreactivity (PSR sort gate): high polyreactivity

QVHLQESGSGLVQSGGSLRLTCAASGYISLGDNMGWYRQAPGKELEFVATISVGGITYYVDSVKGPFTISRDIEKNTVYLQMNSLKPEDTAVYYCASLDIYYFRYYYWGQGTQVTVSS
polyreactivity (PSR sort gate): low polyreactivity

QVQLVESGGGLVQAGGSLRLSCAASGSTFSYNAMGWYRQAPGKEREFVAAITTSGVRTYYADSVKGRFTISRDNAKNTVYLQMNSLKPEDTAVYYCAARANYIFYGMDYWGQGTQVSVSS
polyreactivity (PSR sort gate): high polyreactivity

QVQLVESAGGLVQAGVSLRLSCAASGIIFPYYTMGWYRQAPGKERELVARITNGGRTYYADSVKGRFTISRDNAKNTVYLQMNSLKPEDTAVYYCNAGRYYIGGYWGQGTQVTVSS
polyreactivity (PSR sort gate): high polyreactivity

QVQLVDTGGGLVQAGGSLRLSCSASGSNFEYNDMVWYRHAHGKERELVAAISSGGDTNYADSVKGRFTISRDNAKNTVYLQKNSLKAEDTAVYYCNAEGLILYDYWGQGTQVTVSS
polyreactivity (PSR sort gate): low polyreactivity

QVLLVESGGGLVQAGGSLRLSSAASGSTYRNAMGWYRQAPGKERELVAAISSSGGRTYYADSVKGRFTISRDNAKNTVYLQMNSLKPDDTAVYYCAAPRFAAPSRIGYDWGQGTQVTVSS
polyreactivity (PSR sort gate): high polyreactivity

QVQLVESGGGLVQAGVILRLSCAASGRIFIPYAMGWYIQAPGKERELVAAISYRGGSTYYADSVKGRFTISRDNAKNTVYLQMNSLKPEDTAVYYCANYDYWGQGTQVTVSS
polyreactivity (PSR sort gate): high polyreactivity

QVQLVESGGGLVQAGGSLRLSCDASGSTFFTYAMGWYRQSPGKERELVAAITRGGSTYYADSVKGRFTISRDNAKHTVYLQMNSLKPEDTAVYYCNVDPFTRQNHGNYWGQGTQVTVSS
polyreactivity (PSR sort gate): high polyreactivity

QVQLVESGGGLVHAGGSLRLSCAASGSIFAANAMGWYRQAPGKERELVAAISSSGDITYYADSVKGRFTISRDNAKNSVFLQMNSLKPEDTAVYYCAARRYPYHEDNYWGQGTQVTVSS
polyreactivity (PSR sort gate): high polyreactivity

QVQLVESGGGLVQAGGSLRLSCAASGFTFVNYAMGWYRQAPWKERELVAAIRRSGSRTYYADSVKGRFTISRDIAKNTVYLQMNCLNPEDTAVYYCAAVWYRLYGYWGQGTQVTVSS
polyreactivity (PSR sort gate): low polyreactivity

QVQLVESGGGLVQAGGSLRLSCAASGSILRRYAMGWYRQAPWKERELVAAITSSGGGTYYADSVKGRFTISRDNAKNTVYLQMKSLKPEVTAVYYCAAEYGWLYEYDYWGQGTQVTVSS
polyreactivity (PSR sort gate): high polyreactivity

QVQLVESGGGLVQAGGSLRLSCAASGRTFYRNAMGWYRQAPGKERELVAAISRGDSTYYADSVKGRFTISRDNAKNTVYLQMNSLKPEDTAVYYCAKRARRIGDVNMGSWGQGTQVTVSS
polyreactivity (PSR sort gate): low polyreactivity

QVQLVESGGGLVQAGGSLRLSCAASGRIFSIYGMGWYRQAPGKERELVAVISGSVAITYYADSVKGRFTISRDNAKNTVYLQMNSLKPEDTAVYYCAAVYQSRLWARYYYWGQGSQVTVSS
polyreactivity (PSR sort gate): high polyreactivity

QVQLEESGGGLVQAGGSLRLSCAASGRIFSRNARGWYRPSPGKERELVAASSSGGGSTYYADSVKGRFTISRDNAKNTVYLLMNSLKPEDTAVYYCAARTRITYDWGQGTQVTVSS
polyreactivity (PSR sort gate): low polyreactivity

QVQLVESGAGLVQAGGSLRLSCAASGSIFYPYAMGWYRQAPGKERELVAAITYSGGSTYADSVKGRFTISRDNAKNTVYLQMNSLKPEDTAVYYCAARYIIHVGSWYDYWGQGTQVTVSS
polyreactivity (PSR sort gate): high polyreactivity

QVQLVESGGGLVQAGGSLRLSCAASGSTFTSNVMGWYRQAPGKERELVAAISQSGGRTYYADSVKGRFTISRDNAKNTVYLQMNSLKPEDTAVYYCAASYVHYHMDYWGQGTQVTVSS
polyreactivity (PSR sort gate): high polyreactivity

QVQLVESGGGLVQAGGSLRLSCAASGRTFYNTMGWYRQPPGKERELVAAISRGGITNYADSVKGRFTISRDNAKNTVYLQMNSLKPEDTAVYYCNAEPKLYYYYYKFDYWGQGTQVTVAS
polyreactivity (PSR sort gate): high polyreactivity

QVQLLESGGGLVQAGGSLRLSCAASGRIFGSNAMGWYRPAPGKERELVAAITRGGSTNYADSVKGRFTISRDNAKNTVYLQMNSLKPEDTAVYYCAVRWYRKYNYWGQGTQVTVSS
polyreactivity (PSR sort gate): high polyreactivity

QVQHVESGGGLVQAGGSLRLSCAASGTIFLYNAMGWYRQAPGKERELVAAIRGSDGITFYADSVKGRFTISRDNAKNTVYLQMNSLKPEDTAVYYCAKDTYRSPRHDYGYWGQGTQVTVSS
polyreactivity (PSR sort gate): low polyreactivity

QVQLVESGGGLVQAGGRLRLSCAASGIIFAWYAMGWSRQAPGKERELVAAITSGGSTYYADSVKGRFTISRDNAKNTVYLQMNSLKPDDTAVYYCAASDASTGYLGRHYYWGPGTQVTVSS
polyreactivity (PSR sort gate): high polyreactivity

QVQLVESGGGLVQAGGSLRLICAASGSIFGDNAMGWYRQAPGKERELVARISSGGNTYYADSVKGRFTISRDNAKNTVYLQMNSLKPEDTAVYYCNVYRYDGDYWGQGTQVTVSS
polyreactivity (PSR sort gate): high polyreactivity

QVQLVESGGGLVQAGGSLRLSCAASGRIFGANAMGWSRQAPGKERELVATITYVGTSTYYADSVKGRFTISRDNAKNTVYLQMNSLKPEDTAVYYCAADGYSVFAAILGEYFDYDYWGQGSQVTVSS
polyreactivity (PSR sort gate): low polyreactivity

QVQLVESGGGLVQAGGSLRLSCAASGSTFSKYAMGWYRQAPGKERELEAAITRTGGRTYYADSVKGRFTISRDNANNTVYLQMNSLKPEDTAVYYCAASATFWGQGTQVTVSS
polyreactivity (PSR sort gate): high polyreactivity

QVQLVESGGGLVQAGGSLRLSCAASGITLSIYAMGWYRQAPGKERELVAAIDWSDGSTYYADSVKGRFTISRDNAKNTVYLQMNSLKPEDTAVYYCAAEYHWSYWWPTDDYWGQGTQVTVSS
polyreactivity (PSR sort gate): high polyreactivity

QVQLVESGGGLVQGGGSLRLSCAASGINFGLYTMGWYRQAPGKERELVAAISDSGGRTYYADSVKGRFTISRDNAQNTVYLQMNSLKPEDTSVYYCAAEFWYVWEYNYWGQGTQVTVSS
polyreactivity (PSR sort gate): high polyreactivity

QVQLVESCGGLVQAGGSLRISCAASGRIFRPYAMGWYRQAPGPEREFVAAITSGSNTYYADSVKWRFTISRDNAKNTVYLQMNSLKPEDTAFYYCAAVQRKRAPAETAYGYWGQGPQVTVSS
polyreactivity (PSR sort gate): high polyreactivity

QVQHVESGGGLVQAGGSLRLSCAASGRIFGPYAMGWYRQAPGKEREFVAVITYSSGSTYYADSVKWRFTISRDNAKNTVYLQMNSLKPEDTAVYYCAARLIRSYYYGRYDYWGQGTQVTVSS
polyreactivity (PSR sort gate): high polyreactivity

QVQLVESGGGLVQAGGSLRLSCAASGRTFIWYVMGWYRQAPGKERELVATISYGGITYYADSVKRRFTISRDNAKNTVYLQMNSLKPEDTAVYYCAAYKYTHKPHGDYWGQGTQVTVSS
polyreactivity (PSR sort gate): high polyreactivity

QFQLVESGGGLVQAGGSLRLSCAASGSTFGSYAMGWYRQAPAKESELVAAITASGGSTNYADSVKGRFTISRDNAKNTVYLQMNSLKPEDTAVYYCAADTTYSPLSIEYDYWGQGTQVTVSS
polyreactivity (PSR sort gate): low polyreactivity

QVQLVESGGGLVQAGGSLRLSCAASGRTFDKYAMGWYRQAPGKERELVAAISGSGGRTYYADSVKGRFTISRDNETNTVYLQMNSLKPEDTAVYYCAADTRSYTYYYWGQGTQVTVSS
polyreactivity (PSR sort gate): high polyreactivity

QVQLVESGGGLVQAGGSLRLSCAASGFTFDPYAMGWYRQAPGKERELVAAISWIGTNTYYADSVKGRFTISRDNAKNTVYLLMNSLKPEDTAVYYCAADGPTIAVGSYDYWGQGTQVTVSS
polyreactivity (PSR sort gate): low polyreactivity

QVQLVESGGGLVQAGRSLRLSCAASGYTFSRYTMGWYRQAPGKEWELVAAISSSGGSTYADSVKGRFTISRDNAKNTVYLQMTSLKPEDTGVYYCNRYYRRATKVGDWGQGTQVTVSS
polyreactivity (PSR sort gate): high polyreactivity

QVQLVESGGGLVQAGGSLRLSCAASGSTFFVYAMGWYRQPPGKERELVADINWSSGITYYADSVKGRFTISRDNAKNNVYLQMNSLKREDTAVYYCKKDERYVTWSYFPNRYNYWGQGTQVTVSS
polyreactivity (PSR sort gate): low polyreactivity

QVQLVESGGGLVQAGGSLRLSCAASGFIFSRYPMGWYRQAPGKERELVASISWRGGSTSYADSVKGRFTISRDNAKNTVYLQMNSLKPEDTAVYYCAASSRQVLEYDYWGQGTQVTVSS
polyreactivity (PSR sort gate): high polyreactivity

QVQLVESGGGLVQAGGSLRLSCAASGLTFNWYAMGWYRQAPGKERELVAAINRRGVITYYADSVKGRFTISRDNAKNTVYLQMNSLKPEDTAVYYCNAAYGYVSRVYYLIEHDYWGQGTHVTVSS
polyreactivity (PSR sort gate): high polyreactivity

QVQLVESGGGLVQAGGSLRLICAASGSISYEYAMGWYRQAPGKERELVASIDSDGAGTYYADSVKGRFTISLDNAKNTVYLQMNSLKPEDTAVYYCNSEWYYPYYYSRMDYWGQGTQVTVSS
polyreactivity (PSR sort gate): low polyreactivity
